Experimental data from publication PMC10216364, “Structural Insight into the Mechanism of σ32-Mediated Transcription Initiation of Bacterial RNA Polymerase” (Biomolecules, 2023).

Key:
[1] = molecular target: RNA polymerase core enzyme;chimera sigma32-28 (E. coli;E. coli) (UniProt P0A7Z4+P0A8V2+P0A8T7+P0A800+P0AGB3); test: fluorescence polarization; conditions: apparent Kd; FP: 10 mM Tris-HCl pH 7.7, 100 mM NaCl, 1 mM DTT, 1% glycerol, 0.025% Tween-20, 5 nM DNA, 10-320 nM holoenzyme, room temperature, 5 min; stopped-flow: 10 mM …
[2] = molecular target: RNA polymerase core enzyme;chimera sigma32-38 (E. coli;E. coli) (UniProt P0A7Z4+P0A8V2+P0A8T7+P0A800+P0AGB3); test: fluorescence polarization; conditions: apparent Kd; FP: 10 mM Tris-HCl pH 7.7, 100 mM NaCl, 1 mM DTT, 1% glycerol, 0.025% Tween-20, 5 nM DNA, 10-320 nM holoenzyme, room temperature, 5 min; stopped-flow: 10 mM …
[3] = molecular target: RNA polymerase core enzyme;sigma32 (RpoH) wild type (E. coli;E. coli, UniProt P0A7Z4;P0A8V2;P0A8T7;P0A800;P0AGB3 1-329;1-1342;1-1407;1-91;1-284, |); test: fluorescence polarization; apparent Kd; FP: 10 mM Tris-HCl pH 7.7, 100 mM NaCl, 1 mM DTT, 1% glycerol, 0.025% Tween-20, 5 nM DNA, 10-320 nM holoenzyme, room temperature, 5 min; stopped-flow: 10 mM Tris-HCl pH 7.7, 20 mM NaCl, 10 mM MgCl2, 1 mM DTT; conditions: protein: recombinant;recombinant, tags: ;His tag (pET28a, Ni-NTA), chain copies: 2;1;1;1;1
[4] = molecular target: RNA polymerase core enzyme;sigma32 R266A (E. coli;E. coli, UniProt P0A7Z4;P0A8V2;P0A8T7;P0A800;P0AGB3 1-329;1-1342;1-1407;1-91;1-284, |R266A); test: as above; conditions: protein: recombinant;recombinant; tags: ;His tag (pET28a, Ni-NTA); chain copies: 2;1;1;1;1; blunt
[5] = molecular target: RNA polymerase core enzyme;sigma32 R268A (E. coli;E. coli, UniProt P0A7Z4;P0A8V2;P0A8T7;P0A800;P0AGB3 1-329;1-1342;1-1407;1-91;1-284, |R268A); test: as above; conditions: protein: recombinant;recombinant; tags: ;His tag (pET28a, Ni-NTA); chain copies: 2;1;1;1;1; blunt
[6] = molecular target: RNA polymerase core enzyme;sigma32 E265A (E. coli;E. coli, UniProt P0A7Z4;P0A8V2;P0A8T7;P0A800;P0AGB3 1-329;1-1342;1-1407;1-91;1-284, |E265A); test: as above; conditions: protein: recombinant;recombinant; tags: ;His tag (pET28a, Ni-NTA); chain copies: 2;1;1;1;1; blunt
[7] = molecular target: RNA polymerase core enzyme;sigma32 L253A (E. coli;E. coli, UniProt P0A7Z4;P0A8V2;P0A8T7;P0A800;P0AGB3 1-329;1-1342;1-1407;1-91;1-284, |L253A); test: as above; conditions: protein: recombinant;recombinant; tags: ;His tag (pET28a, Ni-NTA); chain copies: 2;1;1;1;1; blunt
[8] = molecular target: T1, β subunit of E. coli RNAP (E. coli, UniProt P0A8V2 2-1342); test: cryo-EM structure; σ32-RPo: RNAP core enzyme, σ32 and dnaKp1 promoter scaffold mixed at 1:4:1.2 molar ratios, 4 °C overnight, purified on Superdex 200; 20 mM Tris-HCl pH 8.0, 0.1 M NaCl, 1% glycerol, 1 mM DTT; promoter DNA present; conditions: both partners purified
T1 construct: RNA polymerase subunit beta (RpoB), E. coli; stood in the assay as a subunit of the RNAP core enzyme; A subunit of m2; also called RpoB; bears the β-flap tip helix (βFTH); source: E. coli BL21(DE3), co-expressed from pET28a-rpoA-rpoB-rpoC-rpoZ, purified as part of the RNAP core enzyme

[9] = molecular target: T2, β′ subunit of E. coli RNAP (E. coli, UniProt P0A8T7 1-1407); test: as above; conditions: both partners purified
T2 construct: RNA polymerase subunit beta' (RpoC), E. coli; stood in the assay as a subunit of the RNAP core enzyme; A subunit of m2; also called RNAP-β′; RpoC; source: E. coli BL21(DE3), co-expressed from pET28a-rpoA-rpoB-rpoC-rpoZ, purified as part of the RNAP core enzyme

## CCTTGAAGACGTGGTTTACGACCCCATTTAGTAG / GGGGTCGTAAACCACGTCTTCAAGG [long promoter DNA, -35 to -10 bubble]
[1]
  Kd: 9.22 nM
[2]
  Kd: 8.34 nM

B1: long promoter DNA, -35 to -10 bubble (mixed)
DNA 1: CCTTGAAGACGTGGTTTACGACCCCATTTAGTAG
DNA 2: GGGGTCGTAAACCACGTCTTCAAGG
[3]; 25 bp duplex, 3' overhang 9 nt on S5 (fork-junction type)
  Kd: 14.9 nM

B2: short -35 element DNA (dsDNA)
DNA 1: CCTTGAAGACGTGG
DNA 2: CCACGTCTTCAAGG
[4]
  Kd: 54.9 nM
[5]
  Kd: 46.7 nM
[6]
  Kd: 45.9 nM
[7]
  Kd: 38.8 nM
[3]; blunt
  Kd: 28.4 nM

B3: E. coli σ^32 (natural protein)
chain: MTDKMQSLALAPVGNLDSYIRAANAWPMLSADEERALAEKLHYHGDLEAAKTLILSHLRFVVHIARNYAGYGLPQADLIQEGNIGLMKAVRRFNPEVGVRLVSFAVHWIKAEIHEYVLRNWRIVKVATTKAQRKLFFNLRKTKQRLGWFNQDEVEMVARELGVTSKDVREMESRMAAQDMTFDLSSDDDSDSQPMAPVLYLQDKSSNFADGIEDDNWEEQAANRLTDAMQGLDERSQDIIRARWLDEDNKSTLQELADRYGVSAERVRQLEKNAMKKLRAAIEA
notes: RNA polymerase sigma factor σ32 (RpoH), E. coli; the N-terminus was not modelled in the structure; the tag and its end are not described; also called sigma 32; RpoH; source: E. coli BL21(DE3), plasmid pET28a-rpoH, purified (Ni-NTA, HiTrap Heparin)
[8]
  binding result: binds
[9]
  binding result: binds
